Data taken from the supplement of paper PMC9112550, “Optimization of the antimicrobial peptide Bac7 by deep mutational scanning” (BMC Biology, 2022).

Test system: Escherichia coli TOP10
Experiment: shrunken log2 fold change of peptide-encoding DNA abundance (4.5 h post-induction vs induction); higher = less antimicrobial activity (less host growth inhibition)
Details: time post-induction: 4.5 h; library: site-saturation at positions 5, 18, 19, 20
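Further: peptides expressed intracellularly from a pBAD plasmid library in pooled LB shake-flask culture, induced with 0.3% L-arabinose, DNA abundance read by NGS, three biological replicates, DESeq2 with apeglm shrinkage.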

RRIRDRPPRLPRPRPRPSFPPRP
shrunken log2 fold change: -0.362

RRIRRRPPRLPRPRPRPKRIPRP
shrunken log2 fold change: 0.191

RRIRVRPPRLPRPRPRPQYTPRP
shrunken log2 fold change: -0.526

RRIRNRPPRLPRPRPRPNTNPRP
shrunken log2 fold change: -0.59

RRIRIRPPRLPRPRPRPPEKPRP
shrunken log2 fold change: -0.0181

RRIRDRPPRLPRPRPRPDGAPRP
shrunken log2 fold change: 0.657

RRIRSRPPRLPRPRPRPMCWPRP
shrunken log2 fold change: 0.318

RRIRNRPPRLPRPRPRPCPNPRP
shrunken log2 fold change: -0.344

RRIRIRPPRLPRPRPRPEVQPRP
shrunken log2 fold change: -0.022

RRIRKRPPRLPRPRPRPANEPRP
shrunken log2 fold change: 0.151

RRIRNRPPRLPRPRPRPEWQPRP
shrunken log2 fold change: -0.0264

RRIRVRPPRLPRPRPRPTHGPRP
shrunken log2 fold change: -0.235

RRIRERPPRLPRPRPRPGFPPRP
shrunken log2 fold change: 0.176

RRIRSRPPRLPRPRPRPIYFPRP
shrunken log2 fold change: -0.397

RRIRQRPPRLPRPRPRPEDRPRP
shrunken log2 fold change: -0.0214

RRIRTRPPRLPRPRPRPIFIPRP
shrunken log2 fold change: -0.383

RRIRVRPPRLPRPRPRPFLQPRP
shrunken log2 fold change: 0.15

RRIRIRPPRLPRPRPRPTMCPRP
shrunken log2 fold change: -0.386

RRIRNRPPRLPRPRPRPNTFPRP
shrunken log2 fold change: -0.332

RRIRYRPPRLPRPRPRPERRPRP
shrunken log2 fold change: 0.197

RRIRVRPPRLPRPRPRPKMCPRP
shrunken log2 fold change: -0.00991

RRIRYRPPRLPRPRPRPGMAPRP
shrunken log2 fold change: -0.262

RRIRCRPPRLPRPRPRPGVRPRP
shrunken log2 fold change: 0.32

RRIRSRPPRLPRPRPRPDHTPRP
shrunken log2 fold change: -0.407

RRIRNRPPRLPRPRPRPAPKPRP
shrunken log2 fold change: 0.377

RRIRGRPPRLPRPRPRPNGMPRP
shrunken log2 fold change: 0.106

RRIRYRPPRLPRPRPRPAYGPRP
shrunken log2 fold change: 3.33

RRIRARPPRLPRPRPRPANGPRP
shrunken log2 fold change: 0.109

RRIRKRPPRLPRPRPRPEEVPRP
shrunken log2 fold change: 2.83

RRIRVRPPRLPRPRPRPKWVPRP
shrunken log2 fold change: 0.0874

RRIRTRPPRLPRPRPRPQWMPRP
shrunken log2 fold change: -0.291

RRIRTRPPRLPRPRPRPMPVPRP
shrunken log2 fold change: 0.0572

RRIRVRPPRLPRPRPRPRKQPRP
shrunken log2 fold change: 0.383

RRIRSRPPRLPRPRPRPSNWPRP
shrunken log2 fold change: -0.237

RRIRQRPPRLPRPRPRPPPNPRP
shrunken log2 fold change: 0.508

RRIRCRPPRLPRPRPRPHIQPRP
shrunken log2 fold change: -0.73

RRIRARPPRLPRPRPRPHTWPRP
shrunken log2 fold change: 0.0641

RRIRQRPPRLPRPRPRPVDFPRP
shrunken log2 fold change: 0.0196

RRIRQRPPRLPRPRPRPLCNPRP
shrunken log2 fold change: -0.178

RRIRDRPPRLPRPRPRPKQCPRP
shrunken log2 fold change: 0.101

RRIRLRPPRLPRPRPRPIGCPRP
shrunken log2 fold change: -0.0407

RRIRDRPPRLPRPRPRPFATPRP
shrunken log2 fold change: 0.271

RRIRIRPPRLPRPRPRPHYLPRP
shrunken log2 fold change: -0.0913

RRIRMRPPRLPRPRPRPIDIPRP
shrunken log2 fold change: 0.476

RRIRMRPPRLPRPRPRPENFPRP
shrunken log2 fold change: 0.0515

RRIRTRPPRLPRPRPRPPIVPRP
shrunken log2 fold change: -0.175

RRIRMRPPRLPRPRPRPIYHPRP
shrunken log2 fold change: -0.322

RRIRGRPPRLPRPRPRPLNFPRP
shrunken log2 fold change: -0.0482

RRIRVRPPRLPRPRPRPASTPRP
shrunken log2 fold change: -0.311

RRIRTRPPRLPRPRPRPEWLPRP
shrunken log2 fold change: 0.203

RRIRDRPPRLPRPRPRPSFMPRP
shrunken log2 fold change: 0.147

RRIRDRPPRLPRPRPRPKKMPRP
shrunken log2 fold change: -0.0785

RRIRSRPPRLPRPRPRPEMVPRP
shrunken log2 fold change: 0.0797

RRIRYRPPRLPRPRPRPIKYPRP
shrunken log2 fold change: -0.0893

RRIRGRPPRLPRPRPRPAQLPRP
shrunken log2 fold change: 0.435

RRIRSRPPRLPRPRPRPTMQPRP
shrunken log2 fold change: -0.106

RRIRQRPPRLPRPRPRPIYHPRP
shrunken log2 fold change: -0.179

RRIRWRPPRLPRPRPRPDYHPRP
shrunken log2 fold change: -0.219

RRIRPRPPRLPRPRPRPQQDPRP
shrunken log2 fold change: -0.301

RRIRYRPPRLPRPRPRPNTYPRP
shrunken log2 fold change: -0.988

RRIRGRPPRLPRPRPRPASLPRP
shrunken log2 fold change: 0.472

RRIRNRPPRLPRPRPRPFSVPRP
shrunken log2 fold change: -0.678

RRIRPRPPRLPRPRPRPQAHPRP
shrunken log2 fold change: -0.243

RRIRPRPPRLPRPRPRPTWTPRP
shrunken log2 fold change: 0.071

RRIRMRPPRLPRPRPRPNIKPRP
shrunken log2 fold change: -0.266

RRIRWRPPRLPRPRPRPQINPRP
shrunken log2 fold change: -0.348

RRIRWRPPRLPRPRPRPRKQPRP
shrunken log2 fold change: -0.0611

RRIRQRPPRLPRPRPRPFVTPRP
shrunken log2 fold change: -1.13

RRIRSRPPRLPRPRPRPAEDPRP
shrunken log2 fold change: -0.0146

RRIRERPPRLPRPRPRPYCPPRP
shrunken log2 fold change: -1.59

RRIRGRPPRLPRPRPRPFTIPRP
shrunken log2 fold change: -0.0307

RRIRFRPPRLPRPRPRPQCMPRP
shrunken log2 fold change: 0.000372

RRIRMRPPRLPRPRPRPGPCPRP
shrunken log2 fold change: 0.915

RRIRFRPPRLPRPRPRPFVSPRP
shrunken log2 fold change: -0.296

RRIRKRPPRLPRPRPRPHFGPRP
shrunken log2 fold change: -0.067

RRIRSRPPRLPRPRPRPPPAPRP
shrunken log2 fold change: 1.04

RRIRHRPPRLPRPRPRPKAFPRP
shrunken log2 fold change: 0.0173

RRIRGRPPRLPRPRPRPNVTPRP
shrunken log2 fold change: 0.35

RRIRDRPPRLPRPRPRPKVIPRP
shrunken log2 fold change: -0.176

RRIRSRPPRLPRPRPRPDGMPRP
shrunken log2 fold change: -0.113

RRIRQRPPRLPRPRPRPEQMPRP
shrunken log2 fold change: -0.00448

RRIRERPPRLPRPRPRPTMVPRP
shrunken log2 fold change: 0.0432

RRIRQRPPRLPRPRPRPYIIPRP
shrunken log2 fold change: -0.332

RRIRERPPRLPRPRPRPETMPRP
shrunken log2 fold change: 0.0664

RRIRERPPRLPRPRPRPDLSPRP
shrunken log2 fold change: -0.349

RRIRNRPPRLPRPRPRPMAPPRP
shrunken log2 fold change: -0.0631

RRIRVRPPRLPRPRPRPNSCPRP
shrunken log2 fold change: -0.394

RRIRSRPPRLPRPRPRPMIIPRP
shrunken log2 fold change: -0.182

RRIRPRPPRLPRPRPRPGVVPRP
shrunken log2 fold change: 0.215

RRIRMRPPRLPRPRPRPTFAPRP
shrunken log2 fold change: 0.573

RRIRKRPPRLPRPRPRPMIVPRP
shrunken log2 fold change: 0.00271

RRIRGRPPRLPRPRPRPNWYPRP
shrunken log2 fold change: -0.0124

RRIRVRPPRLPRPRPRPHDEPRP
shrunken log2 fold change: 0.0655

RRIRMRPPRLPRPRPRPFSSPRP
shrunken log2 fold change: 0.0321

RRIRKRPPRLPRPRPRPHTIPRP
shrunken log2 fold change: 0.00577

RRIRRRPPRLPRPRPRPNSLPRP
shrunken log2 fold change: -0.652

RRIRFRPPRLPRPRPRPCDFPRP
shrunken log2 fold change: -0.255

RRIRCRPPRLPRPRPRPFCNPRP
shrunken log2 fold change: -0.428

RRIRSRPPRLPRPRPRPYSHPRP
shrunken log2 fold change: -0.712

RRIRGRPPRLPRPRPRPDYMPRP
shrunken log2 fold change: -0.0973

RRIRERPPRLPRPRPRPNIGPRP
shrunken log2 fold change: -0.00187

RRIRARPPRLPRPRPRPMHKPRP
shrunken log2 fold change: 0.221

RRIRARPPRLPRPRPRPPVCPRP
shrunken log2 fold change: 0.276

RRIRLRPPRLPRPRPRPNTLPRP
shrunken log2 fold change: -0.136

RRIRKRPPRLPRPRPRPHFRPRP
shrunken log2 fold change: -0.138

RRIRGRPPRLPRPRPRPLMEPRP
shrunken log2 fold change: 0.6

RRIRCRPPRLPRPRPRPTKAPRP
shrunken log2 fold change: 0.209

RRIRERPPRLPRPRPRPYVQPRP
shrunken log2 fold change: -0.0184

RRIRLRPPRLPRPRPRPEEKPRP
shrunken log2 fold change: 0.0262

RRIRYRPPRLPRPRPRPVFAPRP
shrunken log2 fold change: 0.0473

RRIRSRPPRLPRPRPRPDWWPRP
shrunken log2 fold change: -0.0873

RRIRWRPPRLPRPRPRPDMQPRP
shrunken log2 fold change: 0.337

RRIRVRPPRLPRPRPRPPWSPRP
shrunken log2 fold change: 0.161

RRIRYRPPRLPRPRPRPKIIPRP
shrunken log2 fold change: -1.21

RRIRKRPPRLPRPRPRPWSRPRP
shrunken log2 fold change: -0.0012

RRIRKRPPRLPRPRPRPAMDPRP
shrunken log2 fold change: 0.231

RRIRLRPPRLPRPRPRPMVDPRP
shrunken log2 fold change: -0.00377

RRIRVRPPRLPRPRPRPMTIPRP
shrunken log2 fold change: -0.435

RRIRSRPPRLPRPRPRPPKDPRP
shrunken log2 fold change: -0.0903

RRIRMRPPRLPRPRPRPQIKPRP
shrunken log2 fold change: -0.0128

RRIRLRPPRLPRPRPRPKIQPRP
shrunken log2 fold change: -0.131

RRIRLRPPRLPRPRPRPAIGPRP
shrunken log2 fold change: -0.00988

RRIRMRPPRLPRPRPRPEPSPRP
shrunken log2 fold change: 2.72

RRIRWRPPRLPRPRPRPQYTPRP
shrunken log2 fold change: -0.384

RRIRDRPPRLPRPRPRPIFFPRP
shrunken log2 fold change: 0.0831
